Measured values published in paper PMC13045352, “Mapping Epidermal Growth Factor Receptor‑1 Sorting Domains in Endosomes with a Calibrated Three-Dimensional Expansion Microscopy Toolkit” (ACS Nano, 2026).

Target: the molecule itself
Assay: negative-stain transmission electron microscopy; purified nanocages on glow-discharged carbon film-coated grids, stained with uranyl formate; particle widths measured (mean 28.3 nm)

B1: I3-01_60eGFP monomer of the self-assembling 60-subunit nanocage (one N-terminal eGFP per subunit) (other)
chain: GSGGSGGSGGSGGSGKIEELFKKHKIVAVLRANSVEEAKKKALAVFLGGVHLIEITFTVPDADTVIKELSFLKEMGAIIGAGTVTSVEQCRKAVESGAEFIVSPHLDEEISQFCKEKGVFYMPGVMTPTELVKAMKLGHTILKLFPGEVVGPQFVKAMKGPFPNVKFVPTGGVNLDNVCEWFKAGVLAVGVGSALVKGTPVEVAEKAKAFVEKIRGCTEGSGSGSGSGS
notes: linker between the vector's eGFP and I3-01; begins with the BamHI site GGATCC; I3-01 designed nanocage subunit (David Baker's laboratory); C-terminal linker before the stop codon; Printed molecular weight of the monomer 55.72 kDa; also called 60mer decahedral nanocage; source: HeLa cells, transfected, purified from lysate (centrifugation, 1 MDa spin concentrator); also expressed in RPE-1 cells; …
binding result: binds
